Results taken from patent publication US20240182575A1 (Ablynx, published 2024).

T1: HuCD80-HuIgG1 (fusion protein of the extracellular part of human CD80 and human Fc gamma 1, R&D Systems Cat … (human, UniProt P33681 35-242))
T1 construct: extracellular domain; bought, produced in NS0 cells; also called CD80-IgG1; CD80-Ig; not shown: human Fc gamma 1
T1 sequence (looked up): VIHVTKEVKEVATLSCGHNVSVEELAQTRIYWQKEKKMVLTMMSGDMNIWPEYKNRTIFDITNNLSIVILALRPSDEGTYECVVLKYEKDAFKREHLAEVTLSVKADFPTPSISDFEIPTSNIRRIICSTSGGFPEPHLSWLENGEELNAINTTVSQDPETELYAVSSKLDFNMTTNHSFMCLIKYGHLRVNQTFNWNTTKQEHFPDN

T2: HuCD86-HuIgG1 (fusion protein of the extracellular part of human CD86 and human Fc gamma 1, R&D Systems Cat … (human, UniProt P42081 24-247))
T2 construct: extracellular domain; bought; also called CD86-IgG1; CD86-Ig; not shown: human Fc gamma 1
T2 sequence (looked up): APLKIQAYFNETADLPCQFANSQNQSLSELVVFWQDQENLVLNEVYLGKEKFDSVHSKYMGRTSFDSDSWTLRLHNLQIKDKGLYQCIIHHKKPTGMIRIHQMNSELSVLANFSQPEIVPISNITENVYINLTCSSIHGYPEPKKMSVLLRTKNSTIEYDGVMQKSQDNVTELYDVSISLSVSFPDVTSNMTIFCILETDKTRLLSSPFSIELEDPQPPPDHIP

T3: cynomolgus monkey CTLA4 on stably transfected CHO-K1 cells (human CTLA4 cDNA with S13N, I17T and L105M) (human backbone with cynomolgus monkey …, UniProt P16410 36-223)
T3 chain: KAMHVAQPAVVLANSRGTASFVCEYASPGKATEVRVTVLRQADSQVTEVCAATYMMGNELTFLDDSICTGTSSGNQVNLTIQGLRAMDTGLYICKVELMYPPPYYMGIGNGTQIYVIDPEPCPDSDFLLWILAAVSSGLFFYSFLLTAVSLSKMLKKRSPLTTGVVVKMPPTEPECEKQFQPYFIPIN


How the values were obtained:
[1] = molecular target: T4, human CTLA4 (Y201 mutated to valine) on stably transfected CHO-K1 cells (human, UniProt P16410 36-223); test: FACS, direct binding titration on human CTLA4 CHO cells (head prints IC50)
T4 construct: whole, on cells; the mutation of the intracellular position Y201 keeps the protein on the membrane; also called human CTLA4 overexpressing CHO cells; human CTLA4 transfectant
T4 sequence (P16410 other isoform, or with tags, fused parts or gaps, change not shown): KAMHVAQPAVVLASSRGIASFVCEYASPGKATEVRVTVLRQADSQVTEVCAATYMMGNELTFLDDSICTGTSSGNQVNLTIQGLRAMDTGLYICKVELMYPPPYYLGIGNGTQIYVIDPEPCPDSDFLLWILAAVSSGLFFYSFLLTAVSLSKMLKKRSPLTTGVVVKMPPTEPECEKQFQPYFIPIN
Procedure: Binding of putative CTLA4 reactive Nanobodies clones was detected using unlabeled anti-c-myc tag mouse monoclonal antibody 9E10, followed by a phycoerythrin conjugated F(ab′)2 derived from goat-anti-mouse IgG (human and bovine crossabsorbed), and read on a BD FACSarray instrument. Dead cells were excluded from the analysis by gating out TOPRO3 vital dye positive scoring cells. Binding of the Nanobodies to cells was evaluated in BD FACSarray control software as PE channel histograms.

[2] = molecular target: T5, HuCTLA4-HuIgG1 (fusion protein of the extracellular part of human CD152 and human Fc gamma 1, CTLA4-Ig) (human, UniProt P16410 36-161); test: SPR, Biacore T100, CTLA4-Ig amine-coupled
T5 construct: extracellular domain; also called CTLA4-hFc; CTLA4-Fc; not shown: human Fc gamma 1
T5 sequence (P16410 36-161 limits assumed): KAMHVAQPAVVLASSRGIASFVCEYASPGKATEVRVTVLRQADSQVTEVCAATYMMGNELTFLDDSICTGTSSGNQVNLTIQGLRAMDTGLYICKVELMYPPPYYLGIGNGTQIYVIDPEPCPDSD
Procedure: Affinity constants (Kd) of individual purified Nanobody clones were determined by surface plasmon resonance on a Biacore T100 instrument. […] Remaining reactive groups were inactivated using ethanolamine. […] Each sample was injected for 2 min at a flow rate of 45 μl/min to allow for binding to chip-bound antigen. Next, binding buffer without Nanobody was sent over the chip at the same flow rate to allow for dissociation of bound Nanobody. After 2 min, remaining bound analyte was removed by injecting regeneration solution (10 mM Glycine/HCl pH 1.5). Binding curves obtained at different concentrations of Nanobody were used to calculate KD values. For some clones, only a single undetermined concentrations of Nanobody was injected.

[3] = molecular target: T6, Human IgG1, purified from a human plasma (Sigma-Aldrich Cat #I-5154) (human); test: ELISA, periplasmic extract on coated antigen, anti-myc detection
T6 construct: also called HuIgG1
Excerpt: (§1) To this end, 3 independent ELISA assays were set up. In these ELISAs, either HuCD80 or HuCD86 fusion proteins or human IgG1 were coated on ELISA plates which were washed and then blocked using Marvel skimmed milk powder (Premier Brands UK Ltd., Wirral, Merseyside, UK). […] Four aliquots of periplasmic extract of individual clones prepared as described in Example 4 were allowed to bind in all four types of ELISA plates. Binding of Nanobody to immobilized antigen was detected using mouse anti-c-myc tag monoclonal antibody as a secundary, followed by a goat-anti-mouse (human and bovine serum protein pre-absorbed) HRP conjugate for detection (for detailed protocol, see the prior art and prior applications filed by applicant).

[4] = molecular target: T1, HuCD80-HuIgG1 (fusion protein of the …); test: as above
Excerpt: as §1

[5] = molecular target: T2, HuCD86-HuIgG1 (fusion protein of the …); test: as above
Excerpt: as §1

[6] = molecular target: T3, cynomolgus monkey CTLA4 on stably …; test: FACS, direct binding titration on cyno CTLA4 CHO cells (head prints IC50)
[7] = molecular target: T2, HuCD86-HuIgG1 (fusion protein of the …); test: SPR, Biacore 3000, antigen amine-coupled
Procedure: Affinity constants (Kd) of individual purified Nanobody clones were determined by surface plasmon resonance on a Biacore 3000 instrument. […] Remaining reactive groups were inactivated using ethanolamine. Nanobody binding was assessed at 1 and 0.1 microM. Each sample was injected for 4 min at a flow rate of 45 μl/min to allow for binding to chip-bound antigen. Next, binding buffer without Nanobody was sent over the chip at the same flow rate to allow for dissociation of bound Nanobody. After 2 min, remaining bound analyte was removed by injecting regeneration solution (50 mM NaOH or Glycine/HCl pH 1.5). Binding curves obtained at different concentrations of Nanobody were used to calculate Kd values.

Binder	IC50 [1]	koff [2]	OD [3]	OD [5]	also measured
4CTLAPMP03A6 (VHH, short label tied to the entry by the clone code only; not shown: C-terminal c-myc tag and His6 tag) VHH: EVQLVESGGGLVQPGGSLRLSCAAPGRTFSNYAMGWFRQAPGKGREFVADIRWSDGRTYYADSVKGRFTVSRDNAKNTVYLQMNSLKPEDTAVYYCAAQGGVLSGWDYWGQGTQVTVSS		0.0018 s⁻¹			
4CTLAPMP11E3 (VHH, also called 11E3 WT; not shown: C-terminal c-myc tag and His6 tag) VHH: EVQLVESGGGLVEPGGSLRLSCAASGSISSYNVMGWYRQAPGQQRDLVAHIASNGEIMYADSAKGRFTISRDNAKKTVYLQMNSLKPEDTAVYYCKLWVLGNDYWGQGTQVTVSS	4.91 nM	0.00496 s⁻¹			IC50 [6]: 4.5 nM; Kd [2]: 10 nM; kon [2]: 742000 M⁻¹ s⁻¹
CD8086PMP2E6 (VHH, not shown: C-terminal c-myc tag and His6 tag) VHH: EVQLVESGGGLVQAGGSLRLSCAASGSIFSIYDMGWYRQAPGKQRVLVATITSGGSTNYADSVKGRFTISRDDAKNTVYLQMNSLKPEDTAVYYCNAIAHEEGVYRWDFWGQGTQVTVSS			0.049 OD	0.538 OD	OD [4]: 1.52 OD
4CTLAPMP02C11 (VHH, short label tied to the entry by the clone code only; not shown: C-terminal c-myc tag and His6 tag) VHH: EVQLVESGGGLVQPGGSLRLSCAASGNIFTRHIMGWYRQAPGKQRELVASITPGDNINYADSVKGRFTISRDGAKNTVYLQMNSLKPEDTAVYYCNAHGSILLDRTNYWGQGTQVTVSS		0.0235 s⁻¹			
4CTLAPMP02A5 (VHH, short label tied to the entry by the clone code only; not shown: C-terminal c-myc tag and His6 tag) VHH: EVQLVESGGGLVQAGGSLRLSCAASGRTNSTTLMGWSRRAPGKEREFVAAISGSGTLTSYADSVKGRFAISRDNAKNTVYLQMNSLKPEDTAIYYCAAGLTSWALIPSRTLTTWGQGTQVTVSS	5.72 nM	0.0053 s⁻¹			IC50 [6]: 7.74 nM
4CTLAPMP06C10 (VHH, short label tied to the entry by the clone code only; not shown: C-terminal c-myc tag and His6 tag) VHH: EVQLVESGGGLVQAGGSLRLSCAASGRTFSNYTIAYFRQAPGREREFAAAISPHGTLRSFADSVKDRFTISRDNAKNTVWLQMNSLKLEDTAVYYCAADPSGWGLRQHSENEYPYWGLGTQVTVSS	5.73 nM	0.00279 s⁻¹			IC50 [6]: 5.47 nM
4CTLAPMP03C4 (VHH, short label tied to the entry by the clone code only; not shown: C-terminal c-myc tag and His6 tag) VHH: EVQLVESGGGLVQAGGSLRLSCAASGGTFSFYGMGWFRQAPGKEREFVADIRTSAGRTYYADSVKGRFTISRDNAKNTVYLQMNSLKPEDTAVYYCAAEMSGISGWDYWGQGTQVTVSS	8.06 nM	0.0205 s⁻¹			IC50 [6]: 6.73 nM

Further lines, with some results ahead:

IC50 [1]	koff [2]	OD [3]	OD [5]	Binder	also measured
4.65 nM	0.00618 s⁻¹			4CTLAPMP10G5 (VHH, short label tied to the entry by the clone code only; not shown: C-terminal c-myc tag and His6 tag) VHH: EVQLVESGGGLVQAGGSLRLSCAASGGTFSRYIMAWFRQAPGKEREFVAVIDGSGYSTDYAGSVKGRFTIARDNTKNTAYLQMNSLKPEDTALYFCGAGRQYSTGPYWYDYWGQGTQVTVSS	
		0.046 OD	0.043 OD	CD8086PMP1D1 (VHH, not shown: C-terminal c-myc tag and His6 tag) VHH: EVQLVESGGGLVQAGGSLRLSCAASGRTFSSKAMGWFRQAPGKERDFVAAITWSGGSTYYADHVKGRFTISRDNAKNTVYLQMNSLKPEDTAVYYCATNPYGLGQVGYDYWGQGTQVTVSS	OD [4]: 1.89 OD
		0.043 OD	0.042 OD	CD8086PMP2A7 (VHH, not shown: C-terminal c-myc tag and His6 tag) VHH: EVQLVESGGGLVQAGGSLRLSCAASGRTFSSKAMGWFRQAPGKERDFVAAITWSGGSTYYADHVKGRFTISRDNAKNTVYLQMNSLKPEDTAVYYCATNPYGLGQVGYDYWGQGTQVTVSS	OD [4]: 1.71 OD
		0.052 OD	0.053 OD	CD8086PMP1A3 (VHH, not shown: C-terminal c-myc tag and His6 tag) VHH: EVQLVESGGGLVQAGGSLRLSCAASGPTSSSYSMGWFRQAPGKEREFVAAINWSHGVTYYADSVKGRFTISRDIAKNTVYLQMNSLKPEDTAVYYCAANEYGLGSSIYAYKHWGQGTQVTVSS	OD [4]: 1.92 OD
5.82 nM	0.00258 s⁻¹			4CTLAPMP12H2 (VHH, short label tied to the entry by the clone code only; not shown: C-terminal c-myc tag and His6 tag) VHH: EVQLVESGGGLVEPGGSLRLSCAASGSISSYNVMGWYRQAPGQQRDLVAHIASNGEIMYADSAKGRFTISRDNAKKTVYLQMNSLKPEDTAVYYCKLWVLGNDYWGQRTQVTVSS	IC50 [6]: 5.65 nM; Kd [2]: 7.52 nM; kon [2]: 349000 M⁻¹ s⁻¹
		0.056 OD	0.774 OD	CD8086PMP2F5 (VHH, not shown: C-terminal c-myc tag and His6 tag) VHH: EVQLVKSGGGLVQAGGSLRLSCAASGSIFSIYDMGWYRQAPGKQRELVAAITSGGSTNYADSVKGRFTISRDNAKNTVYLQMNSLKPEDTAVYYCNAIAYEEGVYRWDFWGQGTQVTVSS	OD [4]: 1.65 OD
		0.044 OD	1.73 OD	CD8086PMP2B10 (VHH, not shown: C-terminal c-myc tag and His6 tag) VHH: EVQLVESGGGLVQAGGSLRLSCTGSQISFSDNTMNWYRQVPGKQRELVASLSIFGATGYADSVKGRFTISRDIAGNTVYLQMNDLKIEDTAVYYCKLGPVRRSRLEYWGQGTQVTVSS	Kd [7]: 4 nM; koff [7]: 0.00097 s⁻¹; kon [7]: 250000 M⁻¹ s⁻¹
11.2 nM	0.00489 s⁻¹			4CTLAPMP17E3 (VHH, short label tied to the entry by the clone code only; not shown: C-terminal c-myc tag and His6 tag) VHH: EVQLMESGGGLVTAGGSLRLSCAASGGTFGHYAMAWFRRPPGNEREFVAGIGWTYTTFYADSVKGRFAISRDNAENTVYLQMNNLKPDDTAVYYCAAAELKGRNLRVPDYEHWGQGTQVTVSS	
	0.00386 s⁻¹			4CTLAPMP08E5 (VHH, label 8E5.4 tied to 4CTLAPMP08E5 by the clone code only; the suffix .4 is not explained; also called 8E5.4; not shown: C-terminal c-myc tag and His6 tag) VHH: EVQLVESGGGLVQPGGSLRLSCAASRDIFTRNIMGWYRQAPGKQRDLVASITPGGNMYYADSVKGRFTISRDGAKNTVYLQMNSLKPEDTAVYYCNAHGSILLDRSNYWGQGTQVTVSS	
3.6 nM	0.0067 s⁻¹			4CTLAPMP13B2 (VHH, short label tied to the entry by the clone code only; not shown: C-terminal c-myc tag and His6 tag) VHH: EVQLVESGGGLVQPGGSLRLSCVASGIHFAISTINWYRQAPGKQRESVAAITGTSVTGYADSVKGRFTLSRDNAKNTVYLQMDNLKPEDTAVYYCNVWSGRDYWGQGTQVTVSS	
